Laboratory results published in publication doi:10.1101/2022.04.29.490010 (bioRxiv, 2022).
Positions count from the first letter of the chain named. Names may count otherwise.

B1: ENDOA1^WT (human Endophilin-A1, recombinant, GST tag cleaved) (natural protein, UniProt Q99962 1-352, looked up)
chain: MSVAGLKKQFHKATQKVSEKVGGAEGTKLDDDFKEMERKVDVTSRAVMEIMTKTIEYLQPNPASRAKLSMINTMSKIRGQEKGPGYPQAEALLAEAMLKFGRELGDDCNFGPALGEVGEAMRELSEVKDSLDIEVKQNFIDPLQNLHDKDLREIQHHLKKLEGRRLDFDYKKKRQGKIPDEELRQALEKFDESKEIAESSMFNLLEMDIEQVSQLSALVQAQLEYHKQAVQILQQVTVRLEERIRQASSQPRREYQPKPRMSLEFPTGDSTQPNGGLSHTGTPKPSGVQMDQPCCRALYDFEPENEGELGFKEGDIITLTNQIDENWYEGMLHGHSGFFPINYVEILVALPH
B2: ENDOA1^G276V (human Endophilin-A1 with the Parkinson's disease risk variant G276V, recombinant, GST tag cleaved) (natural protein, UniProt Q99962 1-352, looked up)
chain: B1 chain with G276V
B3: EndoA wild type (Drosophila Endophilin-A, GST tag cleaved) (natural protein, UniProt Q8T390 1-369, looked up)
chain: MAFAGLKKQINKANQYMTEKMGGAEGTKLDMDFMEMERKTDVTVELVEELQLKTKEFLQPNPTARAKMAAVKGISKLSGQAKSNTYPQPEGLLAECMLTYGKKLGEDNSVFAQALVEFGEALKQMADVKYSLDDNIKQNFLEPLHHMQTKDLKEVMHHRKKLQGRRLDFDCKRRRQAKDDEIRGAEDKFGESLQLAQVGMFNLLENDTEHVSQLVTFAEALYDFHSQCADVLRGLQETLQEKRSEAESRPRNEFVPKTLLDLNLDGGGGGLNEDGTPSHISSSASPLPSPMRSPAKSMAVTPQRQQQPCCQALYDFEPENPGELAFKENDIITLLNRVDDNWFEGAVNGRTGYFPQSYVQVQVPLPNGN
B4: EndoA^D265A (Drosophila Endophilin-A D265A, GST tag cleaved) (natural protein, UniProt Q8T390 1-369, looked up)
chain: B3 chain with D265A
B5: EndoA^D265R (Drosophila Endophilin-A D265R, GST tag cleaved) (natural protein, UniProt Q8T390 1-369, looked up)
chain: B3 chain with D265R

Key:
SEC = biological target: the molecule itself; experiment: SEC
SEC-MALS = biological target: the molecule itself; experiment: SEC-MALS

Row | Protein | stoichiometry N (SEC) | stoichiometry N (SEC-MALS)
1 | B1 | 2 | 
2 | B2 | 2 | 
3 | B3 |  | 2
4 | B4 |  | 2
5 | B5 |  | 2
